# Assay results taken from IntAct's records for PubMed 29039417.
# B1: Protein PTHB1 (Homo sapiens), Q3SYG4 (parent)
# chain: MSLFKARDWWSTILGDKEEFDQGCLCLANVDNSGNGQDKIIVGSFMGYLRIFSPHPAKTGDGAQAEDLLLEVDLRDPVLQVEVGKFVSGTEMLHLAVLHSRKLCVYSVSGTLGNVEHGNQCQMKLMYEHNLQRTACNMTYGSFGGVKGRDLICIQSMDGMLMVFEQESYAFGRFLPGFLLPGPLAYSSRTDSFLTVSSCQQVESYKYQVLAFATDADKRQETEQQKLGSGKRLVVDWTLNIGEQALDICIVSFNQSASSVFVLGERNFFCLKDNGQIRFMKKLDWSPSCFLPYCSVSEGTINTLIGNHNNMLHIYQDVTLKWATQLPHIPVAVRVGCLHDLKGVIVTLSDDGHLQCSYLGTDPSLFQAPNVQSRELNYDELDVEMKELQKIIKDVNKSQGVWPMTEREDDLNVSVVVSPNFDSVSQATDVEVGTDLVPSVTVKVTLQNRVILQKAKLSVYVQPPLELTCDQFTFEFMTPDLTRTVSFSVYLKRSYTPSELEGNAVVSYSRPTDRNPDGIPRVIQCKFRLPLKLICLPGQPSKTASHKITIDTNKSPVSLLSLFPGFASQSDDDQVNVMGFHFLGGARITVLASKTSQRYRIQSEQFEDLWLITNELILRLQEYFEKQGVKDFACSFSGSIPLQEYFELIDHHFELRINGEKLEELLSERAVQFRAIQRRLLARFKDKTPAPLQHLDTLLDGTYKQVIALADAVEENQGNLFQSFTRLKSATHLVILLIALWQKLSADQVAILEAAFLPLQEDTQELGWEETVDAAISHLLKTCLSKSSKEQALNLNSQLNIPKDTSQLKKHITLLCDRLSKGGRLCLSTDAAAPQTMVMPGGCTTIPESDLEERSVEQDSTELFTNHRHLTAETPRPEVSPLQGVSE
# partner: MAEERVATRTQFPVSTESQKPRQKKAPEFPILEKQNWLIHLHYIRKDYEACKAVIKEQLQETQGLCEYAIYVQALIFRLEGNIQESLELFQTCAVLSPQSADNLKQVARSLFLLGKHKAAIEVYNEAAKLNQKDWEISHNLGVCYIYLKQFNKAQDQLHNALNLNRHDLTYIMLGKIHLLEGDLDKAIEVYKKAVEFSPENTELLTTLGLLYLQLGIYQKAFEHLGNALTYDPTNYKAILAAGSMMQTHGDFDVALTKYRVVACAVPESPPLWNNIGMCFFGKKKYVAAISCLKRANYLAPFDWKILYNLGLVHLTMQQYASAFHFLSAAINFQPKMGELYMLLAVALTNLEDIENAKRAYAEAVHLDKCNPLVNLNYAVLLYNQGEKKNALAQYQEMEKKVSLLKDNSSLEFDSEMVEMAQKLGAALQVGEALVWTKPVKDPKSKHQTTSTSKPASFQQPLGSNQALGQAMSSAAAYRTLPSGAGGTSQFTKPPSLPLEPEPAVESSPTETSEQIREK
# Variants of: B1
# Details: with bbs4_human BBS4, Q96RK4
row,Variant,effect of a mutation on the interaction
1,E852K,with no effect
2,E852A,with no effect
3,P511K,with no effect
4,P511E,with no effect
5,K685A,with no effect
6,N503K,with no effect
7,L620P,disrupting interaction strength
8,L620K,with no effect
9,S729A,with no effect
10,G584K,with no effect
11,E714A,with no effect
12,I612E,with no effect
13,S855A,with no effect
14,N420K,with no effect
15,K821A,with no effect
16,L827E,with no effect
17,G579A,with no effect
18,C783K,with no effect
19,C783E,with no effect
20,F472E,with no effect
21,Q693K,with no effect
22,K661E,with no effect
23,I550A,with no effect

row,Variant,effect of a mutation on the interaction
1,V424K,with no effect
2,F724K,with no effect
3,N716E,with no effect
4,R868K,with no effect
5,L815K,with no effect
6,L795E,with no effect
7,I534E,with no effect
8,I676E,with no effect
9,D747N,disrupting interaction strength
10,K532E,with no effect
11,V713E,with no effect
12,V706A,with no effect
13,V706K,with no effect
14,P537E,with no effect
15,R679W,disrupting interaction strength
16,D435E,with no effect
17,T771K,with no effect
18,T771E,with no effect
19,K786E,with no effect
20,K786A,with no effect
21,S507E,with no effect
22,L799K,with no effect
23,I735K,with no effect

row,Variant,effect of a mutation on the interaction
1,V879E,with no effect
2,P875K,with no effect
3,V522K,with no effect
4,V522A,with no effect
5,L819E,with no effect
6,S849K,with no effect
7,L736E,with no effect
8,V437A,with no effect
9,V772K,disrupting interaction strength
10,N719A,disrupting interaction strength
11,L560K,with no effect
12,E615K,with no effect
13,L452K,with no effect
14,E668A,with no effect
15,D572E,with no effect
16,V430K,with no effect
17,F653E,with no effect
18,L779K,with no effect
19,L779A,with no effect
20,K728E,with no effect
21,S570A,with no effect
22,P641E,with no effect
23,E769K,with no effect

row,Variant,effect of a mutation on the interaction
1,V450A,with no effect
2,G767E,with no effect
3,Q764K,with no effect
4,L616A,with no effect
5,L744E,with no effect
6,N614A,with no effect
7,G628E,with no effect
8,E622A,with no effect
9,A690E,with no effect
10,S785E,with no effect
11,L727A,with no effect
12,W768E,with no effect
13,V505E,with no effect
14,V505K,with no effect
15,R510E,with no effect
16,Y460A,with no effect
17,Y460K,with no effect
18,P463K,with no effect
19,T763A,with no effect
20,S555E,with no effect
21,S555A,with no effect
22,S787A,with no effect
23,V575K,with no effect

row,Variant,effect of a mutation on the interaction
1,A427E,with no effect
2,L583K,with no effect
3,E753A,with no effect
4,I846E,with no effect
5,I588K,with no effect
6,I588A,with no effect
7,S414A,with no effect
8,A739E,with no effect
9,R528A,with no effect
10,L733A,disrupting interaction strength
11,A774K,with no effect
12,S561E,with no effect
13,V485A,with no effect
14,V485E,with no effect
15,G538E,with no effect
16,I776K,with no effect
17,V461A,with no effect
18,S498E,with no effect
19,D470K,with no effect
20,P881K,with no effect
21,W610E,with no effect
22,A754K,with no effect
23,L536A,with no effect

row,Variant,effect of a mutation on the interaction
1,L695A,with no effect
2,S886K,with no effect
3,M477E,with no effect
4,A831K,with no effect
5,R876A,with no effect
6,L851E,with no effect
7,V885A,with no effect
8,T688E,with no effect
9,T589A,disrupting interaction strength
10,T589E,with no effect
11,T589I,disrupting interaction strength
12,Q760E,with no effect
13,A455K,with no effect
14,T613E,with no effect
15,C535A,with no effect
16,E499K,with no effect
17,L698K,with no effect
18,K547A,with no effect
19,I751K,with no effect
20,V671E,with no effect
21,P540K,with no effect
22,V459K,with no effect
23,K456A,with no effect

row,Variant,effect of a mutation on the interaction
1,T445E,with no effect
2,Q597K,with no effect
3,T865A,with no effect
4,A592K,with no effect
5,I523K,with no effect
6,A833E,with no effect
7,N515E,with no effect
8,N658A,with no effect
9,F487S,disrupting interaction strength
10,H694K,with no effect
11,R587E,with no effect
12,R587K,with no effect
13,R587T,disrupting interaction strength
14,H652A,with no effect
15,A712E,with no effect
16,T845E,with no effect
17,Q569K,with no effect
18,T549A,with no effect
19,R683E,with no effect
20,I657E,with no effect
21,D711E,with no effect
22,H869E,with no effect
23,D573K,with no effect

row,Variant,effect of a mutation on the interaction
1,N800A,with no effect
2,Y495K,with no effect
3,L740K,with no effect
4,Y703K,with no effect
5,Q471A,with no effect
6,A675H,disrupting interaction strength
7,E770K,with no effect
8,S637K,with no effect
9,F636E,with no effect
10,P691E,with no effect
11,Q672E,with no effect
12,R521K,with no effect
13,L642K,with no effect
14,L559A,with no effect
15,L559F,disrupting interaction strength
16,S509E,with no effect
17,S509K,with no effect
18,V489A,with no effect
19,L759A,with no effect
20,T805A,with no effect
21,F721A,with no effect
